Experiments:
[1] = test system: human corneal epithelial cell (HCEC); experiment: HCEC chemotaxis, modified Boyden chemotaxis chamber; type: cell-based; conditions: rCAP37 250 ng/ml; positive control for the peptide
Protocol: The effect of buffer control (0.1% BSA in Gey's buffer), heparin binding-epidermal growth factor (HB-EGF, 50 ng/ml), recombinant CAP37 (rCAP37, 250 ng/ml), 120-146QH (10^−12M, 10^−10 M, 10^−8 M, 10^−6M, and 10^−4M,) and 120-146QR (10^−10M, 10^−8M, 10^−6M, and 10^−4M) on HCEC chemotaxis was determined by the modified Boyden chemotaxis chamber method. HCEC chemotaxis was measured in response to HB-EGF, rCAP37, and peptides 120-146QH (SEQ ID NO:29) and 120-146QR (SEQ ID NO:28) after incubation for 3 hours at 37° C. Chemotaxis is expressed as a percent migration. The buffer control (no chemoattractant) is arbitrarily assigned the value of 100% migration. Data are expressed as means±SEM and are calculated from 6 observations for each test point. **P<0.01 by Wilcoxon signed-rank test as compared to controls.
Chemotaxis: Chemotaxis assays were performed using the modified Boyden chemotaxis chamber assay. Peptide 120-146QH was used at 10^−4 M, 10^−6 M, 10^−8 M, 10^−10 M, and 10^−12 M, and peptide 120-146QR was used at 10^−4 M, 10^−6 M, 10^−8M, and 10^−10M.

[2] = test system: HCEC monolayers; experiment: In vitro scratch assay of HCEC monolayers; type: cell-based, human
Protocol: (A) HCECs were grown to confluency and scratched using a 10 μl pipette tip. Scratched HCEC monolayers were treated with HB-EGF (250 ng/ml) or rCAP37 (25-2000 ng/ml), or were left untreated in basal Keratinocyte Serum Free Medium (KSFM). Wound closure was monitored at 0, 18, 24, and 48 hours utilizing a camera-equipped inverted microscope. The histogram represents data acquired at 48 hours, and the values are the mean±SEM of the percentage of wound closure. The data are representative of at least 4 independent experiments. The percentage of wound closure in treated monolayers was compared to untreated controls by one-way analysis of variance (ANOVA) followed by Dunnett's multiple comparison test, **P<0.01, *P<0.05. (B) Representative images of scratched monolayers treated with buffer control, HB-EGF, and rCAP37 (at 25, 100, and 250 ng/ml) are shown for each time point. Images were taken at 20× objective.
In vitro model of wound healing: An in vitro scratch assay was used in order to determine the ability of rCAP37 to facilitate corneal wound healing. Human corneal epithelial cells were cultured as described above until they reached a confluent monolayer. Each monolayer was scratched using a 10 μl pipette tip to create two perpendicular lines. Monolayers were treated with heparin binding-epidermal growth factor (HB-EGF, 250 ng/ml; Becton Dickinson), rCAP37 (25-2000 ng/ml), or basal KSFM (Gibco). Wound closure was monitored at 0, 18, 24, and 48 hours utilizing a camera-equipped inverted microscope (TE2000-E; Nikon, Melville, N.Y.). Time-lapse images of in vitro wound closure were obtained using a camera-equipped inverted microscope (TE2000-E; Nikon) from […]. HCEC monolayers were treated with HB-EGF, rCAP37, and basal KSFM as described above. The width of each scratch was quantitated using ImageJ software (US National Institutes of Health, Bethesda, Md.). Results are presented as the percentage of wound closure.

[3] = test system: mouse cornea; experiment: Histology (H&E) of corneal wound closure and re-epithelialization; type: in vivo; conditions: rCAP37 250 ng/ml
Protocol: FIG. 23 is a histological analysis of corneal wound closure and re-epithelialization in response to CAP37. Corneas of mice were wounded using the Algerbrush II and treated at 0 and 16 hours with rCAP37 (250 ng/ml) or vehicle (normal saline). Whole eye globes were enucleated at 0, 24, and 48 hours post wounding, and sections were stained using hematoxylin and eosin (H&E). Representative images are shown of (A) CAP37-treated wound at 24 hours, (B) vehicle-treated wound at 24 hours, (C) CAP37-treated wound at 48 hours, and (D) vehicle treated wound at 48 hours. The extent of closure and re-epithelialization of wounds was compared with (E) normal unwounded cornea.
Histology: Whole mouse eyes were collected for histology at 0, 6, 16, 24, and 48 hours post wounding and were immediately placed in Prefer fixative (Anatech LTD., Battle Creek, Mich.) for 20 minutes before being transferred to 70% ethanol. Tissues were paraffin-embedded and cut at a thickness of 5 μm, mounted on SUPERFROSTPLUS® slides (Statlab Medical Products, Lewisville, Tex.), and subsequently deparaffinized, rehydrated, and washed in deionized water. Sections were stained with hematoxylin (Leica Microsystems, Buffalo Grove, Ill.) and rinsed twice in deionized water before being washed in Blue Buffer (Leica Microsystems). […]

B1: CAP37: cationic antimicrobial protein of Mr 37 kDa; recombinant CAP37 produced in human embryonic kidney (HEK) 293 cells (protein)
chain: IVGGRKARPRQFPFLASIQNQGRHFCGGALIHARFVMTAASCFQSQNPGVSTVVLGAYDLRRRERQSRQTFSISSMSENGYDPQQNLNDLMLLQLDREANLTSSVTILPLPLQNATVEAGTRCQVAGWGSQRSGGRLSRFPRFVNVTVTPEDQCRPNNVCTGVLTRRGGICNGDGGTPLVCEGLAHGVASFSLGPCGRGPDFFTRVALFRDWIDGVLNNPGP
[1]
  migration of HCECs vs buffer control, in words: significant increase in migration
[2]; CAP37 250 ng/ml, at 18 hours
  percentage wound closure: ~71%
[2]; CAP37 500 ng/ml
  percentage wound closure: approximately 62%
[2]; HB-EGF 250 ng/ml, CAP37 250 ng/ml
  time to complete closure of scratch wounds: 24 to 48 h
[3]; 24 hours
  re-epithelialization vs vehicle, in words: greatly accelerated in comparison to the vehicle-treated wounds
[3]; 48 hours
  structural integrity of the epithelium, in words: regained full integrity
